This note sets out measurements from US20260166168A1 (MEDILINK THERAPEUTICS SUZHOU, published 2026).

Assay [1] deals with canine canis DLL3-ECD-his antigen protein (canine). Put plainly: ELISA, coated Canis DLL3-his 0.2 µg/mL, antibody titrated.
Assay [2] deals with T1, recombinant extracellular domain protein of rat DLL3 (Rat DLL3-His) (rat, UniProt O88671 33-494).
T1 construct: extracellular domain; Commercial protein; not shown: His tag
T1 sequence (looked up): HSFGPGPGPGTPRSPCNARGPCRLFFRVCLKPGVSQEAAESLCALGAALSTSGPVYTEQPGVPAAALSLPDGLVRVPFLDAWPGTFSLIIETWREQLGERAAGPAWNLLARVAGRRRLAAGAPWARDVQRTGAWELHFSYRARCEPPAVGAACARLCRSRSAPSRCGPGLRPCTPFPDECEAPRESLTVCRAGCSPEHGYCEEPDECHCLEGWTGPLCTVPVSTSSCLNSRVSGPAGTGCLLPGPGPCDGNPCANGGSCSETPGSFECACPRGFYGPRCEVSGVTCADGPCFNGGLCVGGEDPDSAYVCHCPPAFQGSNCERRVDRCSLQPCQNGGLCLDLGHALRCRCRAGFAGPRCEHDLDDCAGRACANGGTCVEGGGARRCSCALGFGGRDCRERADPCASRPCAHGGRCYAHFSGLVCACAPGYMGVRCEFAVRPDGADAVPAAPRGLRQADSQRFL
Kind of assay: ELISA, coated Rat DLL3-his 0.2 µg/mL, antibody titrated. (ELISA stands for enzyme-linked immunosorbent assay.)

Assay [3] addresses T2, recombinant extracellular domain protein of mouse DLL3 (Mouse DLL3-His) (mouse, UniProt O88516 33-490).
T2 construct: extracellular domain; Commercial protein; also called mDLL3; not shown: His tag
T2 sequence (looked up): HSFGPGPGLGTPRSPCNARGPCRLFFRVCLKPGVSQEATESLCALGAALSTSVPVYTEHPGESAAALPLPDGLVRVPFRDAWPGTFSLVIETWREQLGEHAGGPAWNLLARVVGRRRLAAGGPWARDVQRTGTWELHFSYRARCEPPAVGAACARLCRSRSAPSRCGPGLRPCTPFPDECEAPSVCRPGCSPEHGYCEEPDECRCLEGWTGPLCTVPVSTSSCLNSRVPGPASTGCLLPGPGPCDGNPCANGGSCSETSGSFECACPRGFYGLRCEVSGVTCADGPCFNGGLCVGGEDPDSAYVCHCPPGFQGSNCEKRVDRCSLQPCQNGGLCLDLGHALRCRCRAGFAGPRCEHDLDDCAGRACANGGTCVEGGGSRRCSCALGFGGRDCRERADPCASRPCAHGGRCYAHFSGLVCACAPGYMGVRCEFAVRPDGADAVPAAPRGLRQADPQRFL
Put plainly: ELISA, coated Mouse DLL3-His 0.2 µg/mL, antibody titrated.

For assay [4], the target named is T3, recombinant extracellular domain protein of human DLL3 (h.DLL3-ECD-His) (human, UniProt Q9NYJ7 27-492).
T3 construct: extracellular domain; Commercial protein; also called human DLL3 antigen; not shown: His tag
T3 sequence (looked up): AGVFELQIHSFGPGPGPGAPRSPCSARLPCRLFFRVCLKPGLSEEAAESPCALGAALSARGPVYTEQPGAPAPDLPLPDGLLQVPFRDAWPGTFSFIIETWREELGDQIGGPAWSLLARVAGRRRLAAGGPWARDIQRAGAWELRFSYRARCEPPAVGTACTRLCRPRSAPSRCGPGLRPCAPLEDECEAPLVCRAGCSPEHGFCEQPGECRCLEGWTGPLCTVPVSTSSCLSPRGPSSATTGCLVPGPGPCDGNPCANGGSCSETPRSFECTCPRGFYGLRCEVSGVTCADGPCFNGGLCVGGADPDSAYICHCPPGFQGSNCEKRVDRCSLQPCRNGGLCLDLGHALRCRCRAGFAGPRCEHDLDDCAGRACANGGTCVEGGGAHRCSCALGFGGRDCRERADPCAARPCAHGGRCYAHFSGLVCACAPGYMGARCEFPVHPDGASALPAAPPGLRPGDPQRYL
Kind of assay: ELISA, coated h.DLL3-ECD-his 0.2 µg/mL, antibody titrated.

For assay [5], the target named is T4, recombinant extracellular domain protein of cynomolgus monkey DLL3 (cyno.DLL3-ECD-His) (cynomolgus monkey, UniProt A0A2K5WSR1 27-490).
T4 construct: extracellular domain; Commercial protein; not shown: His tag
T4 sequence: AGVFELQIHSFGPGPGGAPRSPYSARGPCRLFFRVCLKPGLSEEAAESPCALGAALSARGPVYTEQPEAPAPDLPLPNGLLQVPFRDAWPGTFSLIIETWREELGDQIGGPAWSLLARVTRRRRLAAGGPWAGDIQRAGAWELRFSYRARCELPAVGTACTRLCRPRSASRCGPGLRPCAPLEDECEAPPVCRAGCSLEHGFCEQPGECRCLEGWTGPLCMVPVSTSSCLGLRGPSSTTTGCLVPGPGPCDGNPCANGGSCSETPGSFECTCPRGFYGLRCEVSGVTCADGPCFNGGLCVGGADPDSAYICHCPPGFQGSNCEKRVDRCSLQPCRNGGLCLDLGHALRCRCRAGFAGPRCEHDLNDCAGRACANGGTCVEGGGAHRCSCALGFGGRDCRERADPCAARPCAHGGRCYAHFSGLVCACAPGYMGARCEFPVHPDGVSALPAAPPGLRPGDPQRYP
Put plainly: ELISA, coated cyno.DLL3-ECD-his 0.2 µg/mL, antibody titrated.

B1: 6F11C10-Hz2 antibody (antibody, human IgG1, kappa, V domains shown)
VH: EVQLVQSGAEVKKPGASVKVSCKASGFTFTDYYMHWVRQAPGQSLEWMGLVYPYSGDISYAQKFQGRVTLTVDTSISTAYMELSRLRSDDTAVYYCARQGNYVNNAIDYWGQGTLVTVSS
VL: DIQMTQSPSSLSASVGDRVTITCKASQNVGNIIAWYQQKPGKSPKALIYLASYRYSGVPSRFSGSGSGTDFTLTISSLQPEDVATYFCQQYSDSPYTFGQGTKVEIKR
notes: Optimized humanized IgG1/kappa; also called 6FC11C0-Hz2; 6F11C10-Hz2-biotin
For the molecule B1, the EC50 (as a rule, the concentration at which the effect is half-maximal) was determined as 17.2 ng/mL in assay [1]; 7.35 ng/mL in assay [2]; 30.1 ng/mL in assay [3]; 8.23 ng/mL in assay [4]; 10.8 ng/mL in assay [5].

B2: 55C11E4-Hz2 (antibody, human IgG1, kappa, V domains shown)
VH: EVQLVQSGAEVKKPGASVKVSCKASGYTFTDYYMNWVRQAPGQRLEWMGVINPYNGGTNYAQKFQGRVTLTVDKSASTAYMELSSLRSEDTAVYYCARDSNYVGLLDYWGQGTLVTVSS
VL: DIVLTQSPATLSLSPGERATLSCRASQSISNNLHWYQQKPGQAPRLLIKYASQSISGIPARFSGSGSGPDFTLTISSLEPEDFAVYFCQQSNSWPYTFGQGTKVEIKR
notes: Optimized humanized IgG1/kappa; also called 55C11E4-Hz2-biotin
B2: the EC50 is 12.9 ng/mL in assay [1]; 3.67 ng/mL in assay [2]; 21.3 ng/mL in assay [3]; 4.95 ng/mL in assay [4]; 4.98 ng/mL in assay [5].
